In patent US20240026407A1, “MODIFICATION OF SAPONINS” (GLAXOSMITHKLINE BIOLOGICALS SA, priority 2020, published 2024):

B1: 1034 (protein, listed as Paenibacillus mucilaginosus)
chain: MSSTQTLRGRFDDPPAEYRAAPFWAWNDALREEEVLRQIGEMKEGGMGGFFIHSRDGLETEYMGTEWMKLVRAAVEEAEAQGMQAWLYDEDRWPSGFAGGLVQARGGDDYRAKGLTLEVVPAEKEGSGRLAERLADGAPVALFRAVIAERSLLSCTRLDLQVMFGSRMEAAAAAENTLLPPILEPQQEQHQDHETVYLLFRVEVSERSEWFNGEAPPDNLNPDTVRTFIELTYEAYEREVGGSFGSAVRGVFTDEPSIHDRHCRFTPGRAWLPWSGSFPAFYRERRGSDVLDTAPYLFFDGSLSPQARHDYWRTVTERFSEAYSGQIGEWCGSRGLAFTGHYLWENNLGTATRVCGAVMPNYRYQHVPGIDMLGEQTNETITVKQCTSVAHQYGRKVVLSETYGCTGWGFTFEGQRWVGDFQYVLGVNLRSQHLALYSIKGCRKRDYPPVFHYNTSWWKFSRVIEDYYARLSAVLTEGRPIRDVLVLHPSTTAWSMVGTGPYGFPARGKDRDVSAANRYGHEFNAFLRGLLGAHYDFDLGDEIILSEIGSVRQTEQTARLAVGMAEYRTVVLPEIRTMLRSTFLLLTGFLEAGGRVVAVGPPAELLEGRPAPELSRLYGHPGLTVVPDGAAAAAALESFLPRRVSIRHQAPQHTEPAEADKMLYMLQKADNRRVLFIVNNDREEEQQVTITLEGEGLLEEWNALTGEVTDVLVRRSQEGLLEFDASFGPADSKLYVLHTDRAPETGLNASPASEAPLLLVDPGTIRMELLQEPAGFTRTAPNALTLDRCSYRLRDGDWSGEMDVWQAQRAVREALGMRQVYGNGLEQRYRWVHEPHPGDGTPAAFRFDFEVTDVPEGEIHLVVESAGEYELGLNGNPVPGVPDGWFLDRSFDRVPLSGLRAGRNELVLSCRYHQRMEVEDLYLTGDFGVDEGRRITREPEKLQLGDWCLQGYPHYAGSMVYRFTVDGGLTPGGPAWLELGSFQAVTAEVRINRETAGHVPWRAANRLDISGRLRQGENLIEVEVMGSPRNLLGPFHHTSGDPSITSWSSFRKEGGDYSPAYRLRPYGLFGGIRLYRVQEQGGKGG
B2: 1036 (protein, listed as Bacteroides cellulosilyticus)
chain: MNRYILFFFLILSTLTTLRAQQSRLVEVGNGYSQTSVNTTVFRNNSLVTQGDEQYISYYDGDGYLVLGKRKLDSDQWTLKRTQYKGNVKDAHNIISMMLDGEGYLHLSFDHHGHKLNYCRSTAPYTLELGDKEPMTGVDEGNVTYPEFYPLNGGDLLFVYRSGSSGRGNLVMNHYSVKEKKWNRVQDVLIDGEDQRNAYWQLYVDEQGTIHLSWVWRETWHVETNHDLCYARSYDNGVTWYKANGKKYDLPIRYNNAEYACRIPQNSELINQTSMSADASGNPYIATYWRDPDSEVPQYRIVWHDGQMWHNRQVSNRHTPFSLKGGGTKMIPIARPRIVVDGGEIFYIFRDEERGSRVSLAHAAAVGVGKWTFTDLTNFPVDAWEPSHDTELWKQKRRLHLFVQHTKQGDGERRVEFAPQPVYVLEVVKPKGD
B3: 1042 (protein, listed as Streptomyces scabiei)
chain: MNPTAPAEQTPTDITVSVTGLRTADDSGLVATAHAMPRLSWSLTGTRPGILQHAYEIQVSGAPSFDDTTSSGQVESGTVTDHPWPAQPLSSRETRHWRVRVRTDRGWTRWSDPARVEGALLDAVDWAARPVHVPSDRGRPSPGPVPLLRREFHLPAEPVSARLYVTSLGVHRTTLNGRPVSADLLEPGWTSYPDRLLYATYDVTGLLRPGPNALAAAVGDGWFRGHLTWHKNRDVYGDTTGLLAQLEVDLTDGTRVTVITDGRWKGGYGDLLSADLYDGCERDLRAEPHGWQLPGFADDGWEPVAVLPLPEGLGQRAHPPVRVVRTVRPRLRTLADGTIAVDAGENVTGRLRIRADGRPGGTVTVRHAEVLDGDGRLLTSILRGARATDRYTLAEGPADLTPEFTFHGFRYAEIDASPDVSVEAVEVEVVAGDLRRIGEFHCSDERVNTLYANVVRSQRGNFLAVPTDCPQRDERLGWTGDIMAFAPTACATFDSASFLDSRLTDLRIQQRPDGAVPMVVPDVPLGELPPAELPFAGAAAGWGDAATVVPAALFEAYGQPHLLERHYTAMRAWVEFTVAHLDEDGTWSGNAQLGDWLDPAAPPENPAAATTDSGYVATAFVAHSARLLADAARELGFPEDADRYTALHRRTAEAAWRKWGDHARTTQTGCALALEFGIAPAGERAEVGKALASLVRANGGRIATGFLGTPFVLPALGDTGHVAEAYELLLNPECPGWLHQVSRGATTMWERWDAIGPDGTVDVENAGTMLSFNHYAYGAVASWLYRSVAGLRPASPGYRTLDIAPRPGATLTSAEAAVDTPYGTASVAWSIGDGSLTVRAVLPPGTTGRFSAPEGWTCTEPVDALASGSHVLSLRPLTRP
B4: 1008 (protein, listed as Pedobacter heparinus)
chain: MNLKTTGIVLVLSTIVCFPCIAQKNLEQSFKVTPDTIQTSVYWYWMSDNISKDGVVKDLYAMKSAGINRAFIGNIGYETTPYGKVKLFSAEWWDIMHTALKTATNLNIEIGVFNSPGWSQSGGPWVKPAQAMRYLASTKANFVGPKQLNVQLEKPKGYFQDVRVIAYKTPKAYGNSIAVHKPKLSSSISVQNINNLIDGSENTTVDIPATESITIDLETSSSFTARSLVVYPAHKGLNVNVELQVKKNKEYVSVKTFSVNRTNSNLHVGFKPYGPVAVSIPPTIGHSFRLVFGKSGGFGLAEVVLSQTPVVESYTEKTLAKMFQSPLPYWNEYQWPDQPLIDDLSLVIDPKTVIDITTFMNAEGQLKWDLPAGNWTIMRTGMLPTGVKNGPASPEGTGLEIDKMSKEHVANHFDAFMGELLRRIPAADRKTWKVVVQDSYETGGQNWTDDMIEKFKASFHYDPLPYLPVIQGEVVGDQNQSDRFLWDLRRFIADRVAYDYVGGLRDISHKHGLTTWLENYGHWGFPGEFLQYGGQSDEIGGEFWSEGELGNIENRAASSAAHIYGKTKVSAESFTAGDKPYQRYPYIMKQRGDRFFTEGINNTLLHLFIQQPSEDKVPGINANFGNEFNRHNTWFSYIDLFTGYLKRTNFMLQQGKYVADVAYFIGEDAPKMTGITDPALPAGYSFDYINAEVIQTRMKVKDGRMVLPDGMSYKLLVLPKLKTMRPELLAKIKELVAQGANILGPAPERSPSLANFPEADAKVKRMVTELWGNVNGTTIKTRKLGKGTIMSGMDMKLALNALNILPDFKTNTTDPVLFIHRSGPQAELYFISNQSEKQITFSPTFRSVDMQPELWDPVTGKTRVLSELSANGSSTTIPLTLEPLQSIFVVFRNPLVASPIRAINFPEAKTIEEINGPWKVTFNSQMRGPEKPVMFDTLIDWTKRPEESIKYYAGTAVYSNSFRATKPVKGERIYLYFSEVSVMAKVKVNGTDVGGMWTAPWRVDITDAIISGVNTLDISVVNNWVNRLVGDSKLPEAKRKTWTNNNPYTPDSKLVPSGLTGKVVVKTIKY
B5: 1023 (protein)
chain: MNLFLSIFLFCSPLFLLGQSELNYPELLYPPQAIKANWVSHPDIQGGEDRIVLFRNEWMVDDPSEAFIINISADNHYFLYVNGNLVTHGPQLSDIRHWKYETIDLKTYLKTGKNLIAIKVVNYGKRRFYGMQSIFTSLMVNGATENAKVLNTSGTDDGWKCSIDDSYRALEVNWRGGGPKSIVGGFYANNPTDFVDKNHYPTDWEQPDFDDSDWVDTQFFEGASSMGGSMAYLLEPRNLPLLTWEKEGIGHTVRTSDIDVSEFPVSGKTVVPEHKKIRFLIDQKYVTNGFPELIFSKGKNAHIKIKYAENLFGPKNTKGDRNIIKGKELLGYYDHVVSNGKERQKFTPNWMRTFRFVEFEIETKGQELVLDSFSNYRSRTHIPSIARFSSNNETYNAIFDICKRTVDICTQDYFLSDAYYETMQYVGDTKIHALLWQAMSGNLAHTKNAIEQFHRSRDADGNILGAYPLRSTFIYPTYSLVWVDMVYDYYQLTNDTDFINTYKDGIIHTLAGFEKNMNELNLVNETQYRYFVDWYTGPNNGGGTATKNNGKNSAVVSLHYVHALQNAARLFKAIGDKHTADTYLDRATAIKSSVYKLCFDPNKNIFAERPDKTVYDQHTNIMAVLTDAIAESEQKALLSNILNDPKLLQATYYYRYYLFEAIKKVGAPELFDLAQRPWQAMIDNHMTTTLERFESDKKPTRSEVHPWSASPAYFYFNYLAGIKSVKNDFQEIEIAPVFGILEDMEGLLPTSKGNILFHLKKIRSKLSAEIIVPKEMSGELVWNEKHIPLKHGQHTYILK
modifications: Zobellia galactanivorans
B6: 1016 (protein, listed as Olsenella profusa)
chain: MRATNLTVACLTNPLGIDVRCPELAWIDEDGLSQSAYQVECKDGAGATLWDTGKVASASMRIAWPGAALASRERVTWRVRLWDDGDACGPWSEFASIEEGLLSADDWCARWISGNYDVPTPRAGALGNFRQMVAAMRPASPDQVVTEPILEGRYPVDCFCRAFVVGKAPVRARLYITACGLYEARIDGEKVGDLCMAPGHTDYRKRVQYQTYDVTAALATGAHELTVQLADGWYRGSCGAWGLLNQYGTQTKLLAQLEVTYADGHVDCVATDTDWQWSGDGPILFADNKDGEMVDATRAPSYAGHARDARHDVAPTASNNVPITMHERFSPAPALAPNGRLLFDLGQNIAGWVELDFDAHESQHVLLRCGEMLDADGNLTLKNIQCSREGFATPLQQVEYVCREGHNHYRTTFCVFGFRYVEVETNVQLGEGSLTAIALYSDMRQTGSFECSNELLNRFFESTVWSTKGNSLDVPTDCPTRERHGWSGDAQIFFETLSYLFDCRSFERKWLHDLFDWQKRDGRLPQVAPAGGVDSYMRFLDGSVGWADAGILIPYRYWRHYGDASVLAELYDGMRRYAEFMIRRCGRRGPFSKRVGIHGEAKKYLVNMGQCYGEWAEPADVHKMDWKDTVAPHPEVATAYTDYVLGCMAQIARELGHEEDEARYRQYSEGCRLAYQELSRLPEFSLDTDRQARLVRPLAFGLLDPQQTAYARKRLVKACESYGWRLGTGFLSTPLILDVLAKYDLDAAYRLLENEEMPGWLFMPKMGATTVWESWEGTQAQGGIASLNHYSKGAVCAWLFRVMCGIAPDGERHVTVAPRPGGRFAYAKAGYESPCGFVGCGWQRVEDGWRFAVEVPANCAATVVLPDGSTREVGAGVHEFECVARAAREG

Columns and labels:
Assay type in all cases: biochemical, Quillaja saponaria
[1] = Experiment 6-1: screening of rhamnosidases for derhamnosylation of saponins in treated bark extract (2%), desglucosyl-QS-17 2134 to QS-21 1988 (PAR %); settings: TBE 2%, pH 7.5, 30 degC, 18 h; TIC peak area ratio percent, LCMS/MS; negative controls 2.719, 2.158
[2] = Experiment 6-1: screening of rhamnosidases for derhamnosylation of saponins in treated bark extract (2%), QS-17 2310 to QS-18 2164 (PAR %); settings: TBE 2%, pH 7.5, 30 degC, 18 h; TIC peak area ratio percent, LCMS/MS; negative controls 3.061, 2.429
[3] = Experiment 6-1: specificity of rhamnosidases towards other rhamnose residues (C3 saccharide rhamnose, C28 saccharide rhamnose); settings: TBE 2%, pH 7.5, 30 degC, 18 h; LCMS/MS; negative controls 0.18, 0.17
[4] = Experiment 6-1: screening of rhamnosidases for derhamnosylation of saponins in treated bark extract (2%), QS-17 2296 to QS-18 2150 (PAR %); settings: TBE 2%, pH 7.5, 30 degC, 18 h; TIC peak area ratio percent of rhamnosylated starting saponin to derhamnosylated product, LCMS/MS; negative controls 4.876, 5.225

Molecule | Peak75 (PAR %) [1] [%] | Peak57 (PAR %) [2] [%] | ratio PP/QS-21 [3] | QS-17 (PAR %) [4] [%]
B1 | 2.389 | 3.034 | 0.17 | 4.827
B2 | 2.444 | 2.852 | 0.16 | 4.834
B3 | 2.599 | 3.383 | 0.18 | 4.871
B4 | 2.538 | 2.658 | 0.17 | 4.834
B5 | 2.120 | 2.889 | 0.17 | 4.916
B6 | 2.498 | 3.326 | 0.18 | 4.872
